Reference: patent KR20200110551A

Columns and labels:
[1] = biological target: FMDV 혈청형 O (진천주) (Foot and Mouth Disease Virus serotype O (Jincheon strain))
[2] = biological target: FMDV 혈청형 O (진천주) (Foot and Mouth Disease Virus serotype O (Jincheon strain)); experiment: cell-based or functional assay

B1: 단클론항체 8B87 (antibody, V domains shown)
VH: KKPGETVKISCKASGYTFTNYGVSWVKQVPGKGLKWMGWINTNTGKPAYADDFKGRFAFYLDTSASTAYLQISNLKNEDEATYFCVIYHDYLWFAYWGQGTLITVSA
VL: NIVLTQSPASLAVSLGQRATISCRASNSVDTYGNSFMHWYQQRPGQPPKLLIFLASDLESGVPGRFRGSGSRTDFTLTIDPVEADDAATYYCQQNYADPWTFGGGTKLEIK
B1 was tested, and the ELISA screening plate (O.D 450nm) [1] was 2.23 O.D 450nm and the VNT titer [2] was 64.
